The data set deals with the molecule itself. The data set can be described thus: cross-linking; HSP90α CTD (2 μM) in Na2HPO4 (25 mM; pH 7.4), incubated 1 h at room temperature with different concentrations of VWK147, then BS3 100 μM for 1 h at room temperature; 12% SDS-PAGE and Western blot with anti-HSP90 (AC88).

B1: recombinant HSP90α CTD (domain or fragment)
chain: not shown
notes: C-terminal domain (CTD) of heat shock protein 90 alpha (HSP90α; HSPC1/HSP90AA1); It says human (hHSP90) only of HSP90 in general and in the modelling; also called CTD r-HSP90α; HSP90 CTD; source: recombinant
As for B1, the “stoichiometry N” value came to 2.

(Values after paper PMC12848304, “Small-molecule inhibitor of C‑terminal HSP90 dimerization modulates autophagy and functions synergistically with mTOR inhibition to kill cisplatin-resistant cancer cells” (Cell Death & Disease, 2025).)
